ChEMBL document CHEMBL1671717, “In vitro potentiation of carbapenems with ME1071, a novel metallo-beta-lactamase inhibitor, against metallo-beta-lactamase- producing Pseudomonas aeruginosa clinical isolates” (Antimicrob Agents Chemother, 2010)

Assays:
[1] = substrate: C[C@@H](O)[C@H]1C(=O)N2C(C(=O)[O-])=C(SC3Cn4cnc[n+]4C3)[C@H](C)[C@H]12; assay: (§1) Ratio of Kcat to Km for Pseudomonas aeruginosa beta-lactamase IMP-1 by UV spectrophotometric analysis
[2] = substrate: C[C@@H](O)[C@H]1C(=O)N2C(C(=O)O)=C(S[C@@H]3CN[C@H](C(=O)N(C)C)C3)[C@H](C)[C@H]12; assay: as §1
[3] = substrate: C[C@@H](O)[C@H]1C(=O)N2C(C(=O)O)=C(SCCNC=N)C[C@H]12; assay: as §1
[4] = substrate: C[C@@H](O)[C@H]1C(=O)N2C(C(=O)[O-])=C(SC3Cn4cnc[n+]4C3)[C@H](C)[C@H]12; assay: (§2) Activity of Pseudomonas aeruginosa beta-lactamase IMP-1 by UV spectrophotometric analysis
[5] = substrate: C[C@@H](O)[C@H]1C(=O)N2C(C(=O)O)=C(SCCNC=N)C[C@H]12; assay: as §2

B1: Beta-lactamase (Pseudomonas aeruginosa), Q79MP6 (protein)
chain: MSKLSVFFIFLFCSIATAAESLPDLKIEKLDEGVYVHTSFEEVNGWGVVPKHGLVVLVNAEAYLIDTPFTAKDTEKLVTWFVERGYKIKGSISSHFHSDSTGGIEWLNSRSIPTYASELTNELLKKDGKVQATNSFSGVNYWLVKNKIEVFYPGPGHTPDNVVVWLPERKILFGGCFIKPYGLGNLGDANIEAWPKSAKLLKSKYGKAKLVVPSHSEVGDASLLKLTLEQAVKGLNESKKPSKPSN
- kcat/Km [1]: 0.3 µM⁻¹ s⁻¹
- kcat/Km [2]: 0.2 µM⁻¹ s⁻¹
- kcat/Km [3]: 1.8 µM⁻¹ s⁻¹
- Km [4]: 167 µM
- kcat [4]: 44.7 s⁻¹
- Km [5]: 35.1 µM
- kcat [5]: 63.5 s⁻¹
